This is an account of results in article PMC10265101 (2023).

One experiment deals with CD3ε. In words: SPR.
Experiment [1] addresses T1, recombinant PD-L1 protein (#10084-HNAH, Sino Biological) (UniProt Q9NZQ7 19-290). Briefly: SPR; heterogeneous ligand fit, KD1.
The target of experiment [2] is T1, recombinant PD-L1 protein (#10084-HNAH, …). In words: SPR; heterogeneous ligand fit, KD2 (second site).

T1 sequence (Q9NZQ7 19-290): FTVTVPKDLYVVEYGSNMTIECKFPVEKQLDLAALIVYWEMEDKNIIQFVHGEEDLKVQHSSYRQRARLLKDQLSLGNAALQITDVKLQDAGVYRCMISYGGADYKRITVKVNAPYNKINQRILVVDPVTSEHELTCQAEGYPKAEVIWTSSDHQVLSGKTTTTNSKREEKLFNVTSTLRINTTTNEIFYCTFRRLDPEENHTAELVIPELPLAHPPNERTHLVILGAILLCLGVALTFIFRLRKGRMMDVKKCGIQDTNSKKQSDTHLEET

B1: recombinant Nb-BiTE (PD-L1/CD3ε Nb-BiTE) (bispecific antibody)
chain: HVQLVESGGGLVQPGGSLRLSCAASGFTFSSKAMSWVRQAPGKGLDWVSTINSGGGNTYYSDSVKGRFTISRDNAKNTLYLQLNSLKTEDTAMYYCSRCSDIYCGGQYTYRGQGTLVTVSSGGGGSGGGGSGGGGSEVQLVESGGGLVQPGGSLRLSCVASGFTFSSIGMSWVRQAPGKGLEWVSGLNPVGSHTGYADSVKGRFTISRDNAKNTLHLQLNSLKTEDTAMYYCQRGYTCSGDLCERGQGTQVTVSSGGGGSGGGGSGGGGSHVQLVESGGGSVQAGGSLRLSCTVSGVIFKNEYMGWFRQAPGKEREGVAAASPGGTITYYGDSVKGRFTISRDNAKNTVYLQMNRLKPEDTAMYYCALDPSTTSWSIIRHGPSLWRYSGRGTQVTVSS
Consider B1, for which the results for the Kd (with CD3ε; in experiment [1]; in experiment [2]) were 2.48 nM, 9.86 nM and 0.00205 nM, respectively.
